Test results from paper PMC7954794, “Protein context shapes the specificity of SH3 domain-mediated interactions in vivo” (Nature Communications, 2021).

B1: YNL229C_2 (protein, UniProt P23202 2-354, looked up)
Transcriptional regulator URE2: MNNNGNQVSNLSNALRQVNIGNRNSNTTTDQSNINFEFSTGVNNNNNNNSSSNNNNVQNNNSGRNGSQNNDNENNIKNTLEQHRQQQQAFSDMSHVEYSRITKFFQEQPLEGYTLFSHRSAPNGFKVAIVLSELGFHYNTIFLDFNLGEHRAPEFVSVNPNARVPALIDHGMDNLSIWESGAILLHLVNKYYKETGNPLLWSDDLADQSQINAWLFFQTSGHAPMIGQALHFRYFHSQKIASAVERYTDEVRRVYGVVEMALAERREALVMELDTENAAAYSAGTTPMSQSRFFDYPVWLVGDKLTIADLAFVPWNNVVDRIGINIKIEFPEVYKWTKHMMRRPAVIKALRGE
B2: YBR177C_2 (protein, UniProt P38295 1-451, looked up)
Medium-chain fatty acid ethyl …: MSEVSKWPAINPFHWGYNGTVSHIVGENGSIKLHLKDNKEQVDFDEFANKYVPTLKNGAQFKLSPYLFTGILQTLYLGAADFSKKFPVFYGREIVKFSDGGVCTADWLIDSWKKDYEFDQSTTSFDKKKFDKDEKATHPEGWPRLQPRTRYLKDNELEELREVDLPLVVILHGLAGGSHEPIIRSLAENLSRSGRFQVVVLNTRGCARSKITTRNLFTAYHTMDIREFLQREKQRHPDRKLYAVGCSFGATMLANYLGEEGDKSPLSAAATLCNPWDLLLSAIRMSQDWWSRTLFSKNIAQFLTRTVQVNMGELGVPNGSLPDHPPTVKNPSFYMFTPENLIKAKSFKSTREFDEVYTAPALGFPNAMEYYKAASSINRVDTIRVPTLVINSRDDPVVGPDQPYSIVEKNPRILYCRTDLGGHLAYLDKDNNSWATKAIAEFFTKFDELVV
B3: YBL071W-A_2 (protein, UniProt Q3E840 1-82, looked up)
Diphthamide biosynthesis …: MSTYDEIEIEDMTFEPENQMFTYPCPCGDRFQIYLDDMFEGEKVAVCPSCSLMIDVVFDKEDLAEYYEEAGIHPPEPIAAAA
B4: YFR040W_2 (protein, UniProt P43612 1-1002, looked up)
SIT4-associating protein …: MSFWPFGQNLNHSNINKILDEYFHVLHELERINPSVGKAIPAIFNNVQERGTSDSLDSIPEEYSHGDEVKTARGDQKSRFEKDDQQERYEKEEEERSMNSSESSTTSFSSGSTSKTDLDEEDISNATAPMMVTTKNLDNSFIERMLVETELLNELSRQNKTLLDFICFGFFFDKKTNKKVNNMEYLVDQLMECISKIKTATTVDLNNLIDYQEQQQLDDSSQEDVYVESDTEQEEEKEDDNNSNNKKRRKRGSSSFGNDDINNNDDDDDANEDDESAYLTKATIISEIFSLDIWLISESLVKNQSYLNKIWSIINQPNFNSENSPLVPIFLKINQNLLLTRQDQYLNFIRTERSFVDDMLKHVDISLLMDFFLKIISTDKIESPTGIIELVYDQNLISKCLSFLNNKESPADIQACVGDFLKALIAISANAPLDDISIGPNSLTRQLASPESIAKLVDIMINQRGAALNTTVSIVIELIRKNNSDYDQVNLLTTTIKTHPPSNRDPIYLGYLLRKFSNHLSDFFQIILDIENDANIPLHENQLHEKFKPLGFERFKVVELIAELLHCSNMGLMNSKRAERIARRRDKVRSQLSHHLQDALNDLSIEEKEQLKTKHSPTRDTDHDLKNNNGKIDNDNNDNDDESDYGDEIDESFEIPYINMKQNIKLRTDPTVGDLFKIKLYDTRIVSKIMELFLTHPWNNFWHNVIFDIIQQIFNGRMDFSYNSFLVLSLFNLKSSYQFMTDIVISDEKGTDVSRFSPVIRDPNFDFKITTDFILRGYQDSYKFYELRKMNLGYMGHIVLIAEEVVKFSKLYKVELISPDIQVILQTEEWQYYSEEVLNETRMMYSKILGGGSYIDDGNGNIIPQLPDNTTVLTPNGDASNNNEILDSDTGSSNGTSGGGQLINVESLEEQLSLSTESDLHNKLREMLINRAQEDVDNKNTENGVFILGPPEDKNSNSNINNTNHNSNNSNNNDNNDNNDNDNDNTRNYNEDADNDNDYDHE
B5: YIL033C_2 (protein, UniProt P07278 2-416, looked up)
cAMP-dependent protein kinase …: VSSLPKESQAELQLFQNEINAANPSDFLQFSANYFNKRLEQQRAFLKAREPEFKAKNIVLFPEPEESFSRPQSAQSQSRSRSSVMFKSPFVNEDPHSNVFKSGFNLDPHEQDTHQQAQEEQQHTREKTSTPPLPMHFNAQRRTSVSGETLQPNNFDDWTPDHYKEKSEQQLQRLEKSIRNNFLFNKLDSDSKRLVINCLEEKSVPKGATIIKQGDQGDYFYVVEKGTVDFYVNDNKVNSSGPGSSFGELALMYNSPRAATVVATSDCLLWALDRLTFRKILLGSSFKKRLMYDDLLKSMPVLKSLTTYDRAKLADALDTKIYQPGETIIREGDQGENFYLIEYGAVDVSKKGQGVINKLKDHDYFGEVALLNDLPRQATVTATKRTKVATLGKSGFQRLLGPAVDVLKLNDPTRH
B6: YDL225W_2 (protein, UniProt Q07657 2-551, looked up)
Seventh homolog of septin 1: STASTPPINLFRRKKEHKRGITYTMLLCGPAGTGKTAFANNLLETKIFPHKYQYGKSNASISSNPEVKVIAPTKVVSFNSKNGIPSYVSEFDPMRANLEPGITITSTSLELGGNKDQGKPEMNEDDTVFFNLIMTHGIGENLDDSLCSEEVMSYLEQQFDIVLAEETRIKRNPRFEDTRVHVALYFIEPTGHGLREVDVELMKSISKYTNVLPIITRADSFTKEELTQFRKNIMFDVERYNVPIYKFEVDPEDDDLESMEENQALASLQPFAIITSDTRDSEGRYVREYPWGIISIDDDKISDLKVLKNVLFGSHLQEFKDTTQNLLYENYRSEKLSSVANAEEIGPNSTKRQSNAPSLSNFASLISTGQFNSSQTLANNLRADTPRNQVSGNFKENEYEDNGEHDSAENEQEMSPVRQLGREIKQENENLIRSIKTESSPKFLNSPDLPERTKLRNISETVPYVLRHERILARQQKLEELEAQSAKELQKRIQELERKAHELKLREKLINQNKLNGSSSSINSLQQSTRSQIKKNDTYTDLASIASGRD
B7: YHR064C_2 (protein, UniProt P38788 1-538, looked up)
Ribosome-associated complex …: MSSPVIGITFGNTSSSIAYINPKNDVDVIANPDGERAIPSALSYVGEDEYHGGQALQQLIRNPKNTIINFRDFIGLPFDKCDVSKCANGAPAVEVDGKVGFVISRGEGKEEKLTVDEVVSRHLNRLKLAAEDYIGSAVKEAVLTVPTNFSEEQKTALKASAAKIGLQIVQFINEPSAALLAHAEQFPFEKDVNVVVADFGGIRSDAAVIAVRNGIFTILATAHDLSLGGDNLDTELVEYFASEFQKKYQANPRKNARSLAKLKANSSITKKTLSNATSATISIDSLADGFDYHASINRMRYELVANKVFAQFSSFVDSVIAKAELDPLDIDAVLLTGGVSFTPKLTTNLEYTLPESVEILGPQNKNASNNPNELAASGAALQARLISDYDADELAEALQPVIVNTPHLKKPIGLIGAKGEFHPVLLAETSFPVQKKLTLKQAKGDFLIGVYEGDHHIEEKTLEPIPKEENAEEDDESEWSDDEPEVVREKLYTLGTKLMELGIKNANGVEIIFNINKDGALRVTARDLKTGNAVKGEL
B8: YML035C_2 (protein, UniProt P15274 1-810, looked up)
AMP deaminase: MDNQATQRLNDLSLEPAPSHDEQDGSGLVIDIDQRKIGDEQAGVVVDDETPPLEQQDSHESLAADSRNANFSYHENQQLLENGTKQLALDEHDSHSAILEQPSHSTNCSSSNIAAMNKGHDSADHASQNSGGKPRTLSASAQHILPETLKSFAGAPVVNKQVRTSASYKMGMLADDASQQFLDDPSSELIDLYSKVAECRNLRAKYQTISVQNDDQNPKNKPGWVVYPPPPKPSYNSDTKTVVPVTNKPDAEVFDFTKCEIPGEDPDWEFTLNDDDSYVVHRSGKTDELIAQIPTLRDYYLDLEKMISISSDGPAKSFAYRRLQYLEARWNLYYLLNEYQETSVSKRNPHRDFYNVRKVDTHVHHSACMNQKHLLRFIKHKLRHSKDEKVIFRDGKLLTLDEVFRSLHLTGYDLSIDTLDMHAHKDTFHRFDKFNLKYNPIGESRLREIFLKTNNYIKGTYLADITKQVIFDLENSKYQNCEYRISVYGRSLDEWDKLASWVIDNKVISHNVRWLVQIPRLYDIYKKTGIVQSFQDICKNLFQPLFEVTKNPQSHPKLHVFLQRVIGFDSVDDESKVDRRFHRKYPKPSLWEAPQNPPYSYYLYYLYSNVASLNQWRAKRGFNTLVLRPHCGEAGDPEHLVSAYLLAHGISHGILLRKVPFVQYLYYLDQVGIAMSPLSNNALFLTYDKNPFPRYFKRGLNVSLSTDDPLQFSYTREPLIEEYSVAAQIYKLSNVDMCELARNSVLQSGWEAQIKKHWIGKDFDKSGVEGNDVVRTNVPDIRINYRYDTLSTELELVNHFANFKRTIEEK
B9: YCR030C_2 (protein, UniProt P25623 1-870, looked up)
Suppressor of yeast profilin …: MTEQRTKYADSILTTKSPYEATETIRIRLSQVKLLNKDFYLLFKELANLKRNYAQQLRKIIAENEDITKILNAQMIESNVLTPQEMSAFRFNSLGELRNVWDTVIEELKSDLKSSTEYYNTLDQQVVRELKESVENNTSWRESKDLHSKLSKNAASIEHYSKNNENSSHLEEARRQWDQQSPYLFELFETIDYNRLDTLKNCMLRFQTSFSDYLLNTTKECETVMTKFLAFEPQSEIDRFAKDASQYNFQLSSSSKEVVPNNASPASATGARPVSVSNGAANTEREKKSPQKDKRKSAFGNIGHRLASASSSLTHNDLMNNEFSDSTNNSSLKSKKSSHTLRSKVGSIFGRNKTKNKRQQQSSSNSHIQASITETPNNSSTRVSSTATSSIYQKQRRPTYSSSKSNNWTPGEASDTPPLPPHATPKNVDAPVTADTPPAQTFTPSEVPPSTPQQSSPPTAKEPDSSNLPKTVPISISQPPLQPQSKTKPLPVEPASPSISLPTATVDNQPSGQVDSRPLHIRAPALPPSRKQNFIHNRDSQLYDSLPNHGSGATPTSSSLSSIPQERPVSTLSSQITGELRELNPQATGSSTSLVGQSLFQHSSLDTSQFGLNASIAEVLNASFKDGMLQNSQLIGEIALNYLPNSVMNSPLPIGINLRINNGAKFEKVILNQAFIERVAPEEFKVNPSFIDSRTLGAIKYSIKEPIAPIVIHPVWRFESHQASVVLTVKMSPSLPDEISQIVIEDLVVFVNIDGANATSALSKPQGSFSKEKKRITWRFKEPVVLTRNGEGQRLIARFITDGLAHESAKGVITKFTISETDNVALPHSGAGSGITLTCQELDENNPFGGEWLDVNTKRTLTTGNYHGLA

Test system: PPIs identified as affected by the SH3 domain deletions
Test: Liquid DHFR-PCA low-throughput validation of PPIs affected by SH3 deletion (Fig. S1D-E)
Type: cell-based, Saccharomyces cerevisiae
Conditions: label = prey, liquid DHFR-PCA, prey _1 = lost, _2 = gained in screen
In short: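 Yeast diploids from DHFR-PCA mating grown 48 h in synthetic complete MSG medium pH 6.0 with NAT and HPH, normalized to 1 OD and diluted to 0.1 OD in liquid PCA selection medium. Growth followed by OD every 15 min for 72 h at 30 °C.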

| Molecule | Ratio (Deletedscore / WTscore) (bait LSB3) | Ratio (Deletedscore / WTscore) (bait BZZ1-2) | also measured |
| --- | --- | --- | --- |
| B1 | – | – | Ratio (Deletedscore / WTscore) (bait HSE1): 0.8445 |
| B2 | 1.519 | – | – |
| B3 | – | – | Ratio (Deletedscore / WTscore) (bait ABP1): 1.188 |
| B4 | 1.731 | – | – |
| B5 | – | – | Ratio (Deletedscore / WTscore) (bait CYK3): 1.015 |
| B6 | – | 1.566 | Ratio (Deletedscore / WTscore) (bait HOF1): 1.663 |
| B7 | – | 1.071 | – |
| B8 | 1.062 | – | Ratio (Deletedscore / WTscore) (bait HSE1): 1.186 |
| B9 | – | 1.115 | – |
